Values quoted from earlier work as cited in article PMC10586765.

Target: UBL4A (Homo sapiens) (UniProt P11441)
Assay: surface plasmon resonance

Sequence of UniProt P11441 (P11441 whole entry): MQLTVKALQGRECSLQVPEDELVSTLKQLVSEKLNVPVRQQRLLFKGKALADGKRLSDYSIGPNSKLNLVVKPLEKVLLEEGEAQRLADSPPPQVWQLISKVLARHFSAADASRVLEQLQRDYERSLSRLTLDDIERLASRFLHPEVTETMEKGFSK

- Kd: 2.2 nM
Substance: BAG6 (from UniProt P46379)
